Data on four substances can be found in article PMC5477506.

The target of test [1] is Se-Met SaTRIC mutant (L148M) (Sulfolobus acidocaldarius). Nature of the test: crystal structure; SaTRIC purified in DM, crystallised in lipid cubic phase (monoolein); lattices P6(3), P321 and R32, one molecule per asymmetric unit, trimer about the crystallographic three-fold axis.
The target in test [2] is SaTRIC, prokaryotic TRIC homologue from the archaeon Sulfolobus acidocaldarius, wild type (Sulfolobus acidocaldarius). The test is described as follows: cross-linking; purified protein in DDM (around 1 mg/ml in 30 ul) with glutaraldehyde (0, 0.00005%, 0.0001%, 0.0005%, 0.001%) at room temperature for 8 h; quenched with 50 mM Tris-Cl pH 8.0; 12% SDS-PAGE.
Test [3] shares this target. The test is described as follows: crystal structure; SaTRIC purified in DM, crystallised in lipid cubic phase (monoolein); lattices P6(3), P321 and R32, one molecule per asymmetric unit, trimer about the crystallographic three-fold axis.
Test [4] shares this target. Nature of the test: SEC-MALS; analytical size-exclusion chromatography in detergent-containing mobile phases; multi-angle light scattering with refractive index detection used to analyse the oligomeric state.
Test [5] addresses Se-Met CpTRIC (Colwellia psychrerythraea 34H). Nature of the test: crystal structure; Se-Met CpTRIC in octylmaltoside, crystallised from detergent micelles (38% PEG400, 0.1 M NaCl, 0.1 M CdCl2, 0.1 M Tris-HCl pH 8.5); space group R32, one protomer per asymmetric unit.
Test [6] has as its target CpTRIC, prokaryotic TRIC homologue from the bacterium Colwellia psychrerythraea (Colwellia psychrerythraea 34H). Nature of the test: cross-linking; purified protein in DDM (around 1 mg/ml in 30 ul) with glutaraldehyde (0, 0.00005%, 0.0001%, 0.0005%, 0.001%) at room temperature for 8 h; quenched with 50 mM Tris-Cl pH 8.0; 12% SDS-PAGE.
Test [7] shares this target. The test is described as follows: SEC-MALS; analytical size-exclusion chromatography in detergent-containing mobile phases; multi-angle light scattering with refractive index detection used to analyse the oligomeric state.

The term stoichiometry N denotes a count of units in the complex or per binding partner. Consider “Se-Met SaTRIC mutant (L148M) (natural protein)”, for which the stoichiometry N in test [1] is 3. In the case of “SaTRIC, prokaryotic TRIC homologue from the archaeon Sulfolobus acidocaldarius, wild type (natural protein)”, the stoichiometry N in test [2], in test [3] and in test [4] was 3 in each case. Take Se-Met CpTRIC (natural protein): the stoichiometry N in test [5] is 3.

As to “CpTRIC, prokaryotic TRIC homologue from the bacterium Colwellia psychrerythraea (natural protein)”, the stoichiometry N in test [6] and in test [7] was 3 throughout.
